Assay results from US20250163127A1 (published 2025).

T1: human CD86 (human)
T1 chain: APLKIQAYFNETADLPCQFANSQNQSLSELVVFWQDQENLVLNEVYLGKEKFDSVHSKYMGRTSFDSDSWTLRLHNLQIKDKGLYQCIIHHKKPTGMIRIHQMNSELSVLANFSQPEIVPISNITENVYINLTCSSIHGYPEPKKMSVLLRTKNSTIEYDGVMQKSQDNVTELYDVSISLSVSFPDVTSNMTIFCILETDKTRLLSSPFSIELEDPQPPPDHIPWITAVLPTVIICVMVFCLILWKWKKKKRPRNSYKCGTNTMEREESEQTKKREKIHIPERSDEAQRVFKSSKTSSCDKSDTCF

T2: TIGIT (human, UniProt Q495A1)
T2 sequence: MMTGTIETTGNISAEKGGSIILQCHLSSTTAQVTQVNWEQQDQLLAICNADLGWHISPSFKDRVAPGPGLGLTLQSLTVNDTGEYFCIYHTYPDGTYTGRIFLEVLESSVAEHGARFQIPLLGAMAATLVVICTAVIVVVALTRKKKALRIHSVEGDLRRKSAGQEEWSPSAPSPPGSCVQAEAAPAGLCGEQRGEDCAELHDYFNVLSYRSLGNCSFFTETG

B1: CD58 3650-CD58 3650-PD-L1 303-PD-L1 303 (other)
chain: SQQIYGVVYGNVTFHVPSNVPLKEVLWKKQKDKVAELENSEFRAFSSFKNRVYLDTVSGSLTIYNLTSSDEDEYEMESPNITDTMKFFLYVLESGGGGSGGGGSGGGGSSQQIYGVVYGNVTFHVPSNVPLKEVLWKKQKDKVAELENSEFRAFSSFKNRVYLDTVSGSLTIYNLTSSDEDEYEMESPNITDTMKFFLYVLESGGGGSGGGGSGGGGSFTVTVPKDLYVVEYGSNMTIECKFPVEKQLDLAALIVYWEMEGKDIIQFVHGEEDQKAQHSSYRQRARLLKDQLSLGNAALQITDVKLQDAGVYRCMISYGGGADYKRITVKVNAGSGGSGGGGSGGGGSFTVTVPKDLYVVEYGSNMTIECKFPVEKQLDLAALIVYWEMEGKDIIQFVHGEEDQKAQHSSYRQRARLLKDQLSLGNAALQITDVKLQDAGVYRCMISYGGGADYKRITVKVNAGSGGGGSDYKDDDDKHHHHHH
B2: CD58 3650-PD-L1 303-PD-L1 303-CD58 3650 (other)
chain: SQQIYGVVYGNVTFHVPSNVPLKEVLWKKQKDKVAELENSEFRAFSSFKNRVYLDTVSGSLTIYNLTSSDEDEYEMESPNITDTMKFFLYVLESGGGGSGGGGSGGGGSFTVTVPKDLYVVEYGSNMTIECKFPVEKQLDLAALIVYWEMEGKDIIQFVHGEEDQKAQHSSYRQRARLLKDQLSLGNAALQITDVKLQDAGVYRCMISYGGGADYKRITVKVNAGGGGSGGGGSGGGGSFTVTVPKDLYVVEYGSNMTIECKFPVEKQLDLAALIVYWEMEGKDIIQFVHGEEDQKAQHSSYRQRARLLKDQLSLGNAALQITDVKLQDAGVYRCMISYGGGADYKRITVKVNAGSGGSGGGGSGGGGSSQQIYGVVYGNVTFHVPSNVPLKEVLWKKQKDKVAELENSEFRAFSSFKNRVYLDTVSGSLTIYNLTSSDEDEYEMESPNITDTMKFFLYVLESGSGGGGSDYKDDDDKHHHHHH
B3: CTLA-4 3060-CD155 665-Fc (Fc fusion)
chain: KAMHVAQPAVVFASSHGIASFVCEYASPWKATEVRVTVLRQADSQVTEVCAATYMTGNELTFLDDSICTGTSSGNQVNLTIQGLRAMDTGLYICKVEQMYPPPYLLGIGNGTQIYVIDPEPCPDSDGGGGSGGGGSGGGGSWPPPGTGDVVVQAPTQVSGFLGDSVTLPCYLQVPNMEVTHVSQLTWARHGESGSMAVFHQTQGPWYAESKRLEFVAARLGAELRNASLRVFGLRAEDEGNYTCQFVTFPQRSRSVDIWLRVLGSGGGGSEPKSSDKTHTCPPCPAPEAEGAPSVFLFPPKPKDTLMISRTPEVTCVVVDVSHEDPEVKFNWYVDGVEVHNAKTKPREEQYNSTYRVVSVLTVLHQDWLNGKEYKCKVSNKALPAPIEKTISKAKGQPREPQVYTLPPSRDELTKNQVSLTCLVKGFYPSDIAVEWESNGQPENNYKTTPPVLDSDGSFFLYSKLTVDKSRWQQGNVFSCSVMHEALHNHYTQKSLSLSPG
B4: CD155 665-CTLA-4 3037-Fc (Fc fusion)
chain: WPPPGTGDVVVQAPTQVSGFLGDSVTLPCYLQVPNMEVTHVSQLTWARHGESGSMAVFHQTQGPWYAESKRLEFVAARLGAELRNASLRVFGLRAEDEGNYTCQFVTFPQRSRSVDIWLRVLGGGGSGGGGSGGGGSKAMHVAQPAVVFASSHGIASFVCEYASPWKATEVRVTVLRQADSQVTEVCAATYMTGNELTFLDDSICTGTSSGNQVNLTIQGLRAMDTGLYICKVEQMYPPPYLLGIGNGTQIYVIDPEPCPDSDGSGGGGSEPKSSDKTHTCPPCPAPEAEGAPSVFLFPPKPKDTLMISRTPEVTCVVVDVSHEDPEVKFNWYVDGVEVHNAKTKPREEQYNSTYRVVSVLTVLHQDWLNGKEYKCKVSNKALPAPIEKTISKAKGQPREPQVYTLPPSRDELTKNQVSLTCLVKGFYPSDIAVEWESNGQPENNYKTTPPVLDSDGSFFLYSKLTVDKSRWQQGNVFSCSVMHEALHNHYTQKSLSLSPG
B5: CD 155 665 G4S FLAGHis (ligand)
chain: WPPPGTGDVVVQAPTQVSGFLGDSVTLPCYLQVPNMEVTHVSQLTWARHGESGSMAVFHQTQGPWYAESKRLEFVAARLGAELRNASLRVFGLRAEDEGNYTCQFVTFPQRSRSVDIWLRVLGGGGSDYKDDDDKHHHHHH

Columns and labels:
Assay in all cases: cell-based or functional assay
PD-1 = PD-1 (human, UniProt Q15116)
CD2 = CD2 (human, UniProt P06729)
human CD86 = biological target: T1, human CD86
TIGIT = biological target: T2, TIGIT

Row | Binder | 100 nM IFN-gamma (pg/mL), SEB assay (PD-1) | 100 nM IFN-gamma (pg/mL), SEB assay (CD2) | 100 nM IFN-gamma (pg/mL), SEB assay (human CD86) | 100 nM IFN-gamma (pg/mL), SEB assay (TIGIT)
1 | B1 | 6030 pg/mL | 6030 pg/mL | – | –
2 | B2 | 16200 pg/mL | 16200 pg/mL | – | –
3 | B3 | – | – | 1900 pg/mL | 1900 pg/mL
4 | B4 | – | – | 4310 pg/mL | 4310 pg/mL
5 | B5 | – | – | – | 10300 pg/mL
